We go through 36 variants from the Human Domainome abundance scans (Beltran et al. 2025).

The chains are these.
B1: Far upstream element-binding protein 3, residues 75 to 150; numbered along this chain, Q96I24 (parent)
chain: RTVITEEFKVPDKMVGFIIGRGGEQISRIQAESGCKIQIASESSGIPERPCVLTGTPESIEQAKRLLGQIVDRCRN

± gives the uncertainty stated by the source.

Variants of B1 are the subject of the series. In words: abundance fitness (aPCA) (normalised: wild type 0, dead -1); higher = more abundant; growth selection in yeast, the domain comes from the species named. As to conditions: Homo sapiens.
Turning to RTVITEEFKVPDKMVGFIIGRGGEQISRIQADSGCKIQIASESSGIPERPCVLTGTPESIEQAKRLLGQIVDRCRN [E32D], the abundance fitness was -0.005 ± 0.047. As for RTVITEEFKVPDKMVGFIIGRGGEQISRIQATSGCKIQIASESSGIPERPCVLTGTPESIEQAKRLLGQIVDRCRN [E32T], the abundance fitness is -0.055 ± 0.044. Consider RTVITEEFKVPDKMVGFIIGRGGEQISRIQAWSGCKIQIASESSGIPERPCVLTGTPESIEQAKRLLGQIVDRCRN [E32W], for which the abundance fitness was -0.131 ± 0.031. As for RTVITEEFKVPDKMVGFIIGRGGEQISRIQASSGCKIQIASESSGIPERPCVLTGTPESIEQAKRLLGQIVDRCRN [E32S], the figure is -0.093 ± 0.032. As for RTVITEEFKVPDKMVGFIIGRGGEQISRIQAASGCKIQIASESSGIPERPCVLTGTPESIEQAKRLLGQIVDRCRN [E32A], the figure is -0.074 ± 0.034; as for RTVITEEFKVPDKMVGFIIGRGGEQISRIQANSGCKIQIASESSGIPERPCVLTGTPESIEQAKRLLGQIVDRCRN [E32N], -0.173 ± 0.079. Under RTVITEEFKVPDKMVGFIIGRGGEQISRIQAPSGCKIQIASESSGIPERPCVLTGTPESIEQAKRLLGQIVDRCRN [E32P] stands -0.95 ± 0.069. Consider RTVITEEFKVPDKMVGFIIGRGGEQISRIQAQSGCKIQIASESSGIPERPCVLTGTPESIEQAKRLLGQIVDRCRN [E32Q], for which the abundance fitness was 0.016 ± 0.04. Regarding RTVITEEFKVPDKMVGFIIGRGGEQISRIQACSGCKIQIASESSGIPERPCVLTGTPESIEQAKRLLGQIVDRCRN [E32C], the abundance fitness is -0.128 ± 0.042. In the case of RTVITEEFKVPDKMVGFIIGRGGEQISRIQALSGCKIQIASESSGIPERPCVLTGTPESIEQAKRLLGQIVDRCRN [E32L], the abundance fitness was -0.044 ± 0.03.

In the case of RTVITEEFKVPDKMVGFIIGRGGEQISRIQARSGCKIQIASESSGIPERPCVLTGTPESIEQAKRLLGQIVDRCRN [E32R], the abundance fitness was -0.039 ± 0.026. In the case of RTVITEEFKVPDKMVGFIIGRGGEQISRIQAVSGCKIQIASESSGIPERPCVLTGTPESIEQAKRLLGQIVDRCRN [E32V], the abundance fitness is -0.073 ± 0.027. With RTVITEEFKVPDKMVGFIIGRGGEQISRIQAGSGCKIQIASESSGIPERPCVLTGTPESIEQAKRLLGQIVDRCRN [E32G], the abundance fitness was -0.237 ± 0.026.

On to RTVITEEFKVPDKMVGFIIGRGGEQISRIQAHSGCKIQIASESSGIPERPCVLTGTPESIEQAKRLLGQIVDRCRN [E32H], for which the abundance fitness is -0.2 ± 0.064. RTVITEEFKVPDKMVGFIIGRGGEQISRIQAMSGCKIQIASESSGIPERPCVLTGTPESIEQAKRLLGQIVDRCRN [E32M]: the abundance fitness is -0.045 ± 0.038. Under RTVITEEFKVPDKMVGFIIGRGGEQISRIQAKSGCKIQIASESSGIPERPCVLTGTPESIEQAKRLLGQIVDRCRN [E32K] stands -0.054 ± 0.042; under RTVITEEFKVPDKMVGFIIGRGGEQISRIQAISGCKIQIASESSGIPERPCVLTGTPESIEQAKRLLGQIVDRCRN [E32I], -0.04 ± 0.061; under RTVITEEFKVPDKMVGFIIGRGGEQISRIQAYSGCKIQIASESSGIPERPCVLTGTPESIEQAKRLLGQIVDRCRN [E32Y], -0.049 ± 0.059.

On to RTVITEEFKVPDKMVGFIIGRGGEQISRIQRESGCKIQIASESSGIPERPCVLTGTPESIEQAKRLLGQIVDRCRN [A31R], for which the abundance fitness was -0.005 ± 0.025.

In the case of RTVITEEFKVPDKMVGFIIGRGGEQISRIQLESGCKIQIASESSGIPERPCVLTGTPESIEQAKRLLGQIVDRCRN [A31L], the abundance fitness is -0.063 ± 0.029. As for RTVITEEFKVPDKMVGFIIGRGGEQISRIQYESGCKIQIASESSGIPERPCVLTGTPESIEQAKRLLGQIVDRCRN [A31Y], the figure is -0.076 ± 0.05; as for RTVITEEFKVPDKMVGFIIGRGGEQISRIQSESGCKIQIASESSGIPERPCVLTGTPESIEQAKRLLGQIVDRCRN [A31S], -0.029 ± 0.032. For the variant RTVITEEFKVPDKMVGFIIGRGGEQISRIQNESGCKIQIASESSGIPERPCVLTGTPESIEQAKRLLGQIVDRCRN [A31N], the abundance fitness was -0.044 ± 0.063. Take RTVITEEFKVPDKMVGFIIGRGGEQISRIQFESGCKIQIASESSGIPERPCVLTGTPESIEQAKRLLGQIVDRCRN [A31F]: the abundance fitness is -0.127 ± 0.055. For RTVITEEFKVPDKMVGFIIGRGGEQISRIQPESGCKIQIASESSGIPERPCVLTGTPESIEQAKRLLGQIVDRCRN [A31P], the abundance fitness was -0.774 ± 0.048.

For the variant RTVITEEFKVPDKMVGFIIGRGGEQISRIQDESGCKIQIASESSGIPERPCVLTGTPESIEQAKRLLGQIVDRCRN [A31D], the abundance fitness was -0.015 ± 0.046.

In the case of RTVITEEFKVPDKMVGFIIGRGGEQISRIQKESGCKIQIASESSGIPERPCVLTGTPESIEQAKRLLGQIVDRCRN [A31K], the abundance fitness worked out at 0.033 ± 0.041. Consider RTVITEEFKVPDKMVGFIIGRGGEQISRIQTESGCKIQIASESSGIPERPCVLTGTPESIEQAKRLLGQIVDRCRN [A31T], for which the abundance fitness was -0.039 ± 0.038. For the variant RTVITEEFKVPDKMVGFIIGRGGEQISRIQHESGCKIQIASESSGIPERPCVLTGTPESIEQAKRLLGQIVDRCRN [A31H], the abundance fitness was found to be 0.057 ± 0.051.

As to RTVITEEFKVPDKMVGFIIGRGGEQISRIQMESGCKIQIASESSGIPERPCVLTGTPESIEQAKRLLGQIVDRCRN [A31M], the abundance fitness is -0.07 ± 0.039. For RTVITEEFKVPDKMVGFIIGRGGEQISRIQEESGCKIQIASESSGIPERPCVLTGTPESIEQAKRLLGQIVDRCRN [A31E], the abundance fitness stood at 0.025 ± 0.034. As for RTVITEEFKVPDKMVGFIIGRGGEQISRIQIESGCKIQIASESSGIPERPCVLTGTPESIEQAKRLLGQIVDRCRN [A31I], the abundance fitness is -0.025 ± 0.06. In the case of RTVITEEFKVPDKMVGFIIGRGGEQISRIQWESGCKIQIASESSGIPERPCVLTGTPESIEQAKRLLGQIVDRCRN [A31W], the abundance fitness is -0.168 ± 0.03. With RTVITEEFKVPDKMVGFIIGRGGEQISRIQVESGCKIQIASESSGIPERPCVLTGTPESIEQAKRLLGQIVDRCRN [A31V], the abundance fitness is -0.061 ± 0.029.

RTVITEEFKVPDKMVGFIIGRGGEQISRIQQESGCKIQIASESSGIPERPCVLTGTPESIEQAKRLLGQIVDRCRN [A31Q]: the abundance fitness was 0.003 ± 0.038. Under RTVITEEFKVPDKMVGFIIGRGGEQISRIQGESGCKIQIASESSGIPERPCVLTGTPESIEQAKRLLGQIVDRCRN [A31G] stands -0.06 ± 0.025.
